# Publication PMC9482650, “Quantitative fragmentomics allow affinity mapping of interactomes” (Nature Communications, 2022)
# T1: GRIP1_4, Q9Y3R0
# T1 sequence (Q9Y3R0 467-571, limits assumed, looked up): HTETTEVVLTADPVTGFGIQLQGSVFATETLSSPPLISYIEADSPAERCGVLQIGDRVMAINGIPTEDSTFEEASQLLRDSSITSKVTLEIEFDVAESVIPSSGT
# T2: APBA1_2, Q02410
# T2 sequence (Q02410 742-832, limits assumed, looked up): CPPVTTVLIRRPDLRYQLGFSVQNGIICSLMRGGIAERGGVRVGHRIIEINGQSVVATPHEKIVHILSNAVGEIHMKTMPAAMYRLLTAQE
# T3: GRIP1_7, Q9Y3R0
# T3 sequence (Q9Y3R0 999-1096, limits assumed, looked up): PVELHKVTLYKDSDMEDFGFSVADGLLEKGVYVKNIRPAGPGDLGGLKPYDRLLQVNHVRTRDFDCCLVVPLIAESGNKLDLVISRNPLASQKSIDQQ
# T4: MPP7, Q5T2T1
# T4 sequence (Q5T2T1 134-230, limits assumed, looked up): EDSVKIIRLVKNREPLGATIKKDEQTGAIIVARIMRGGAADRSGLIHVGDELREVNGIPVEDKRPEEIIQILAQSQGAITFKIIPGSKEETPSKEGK
# T5: APBA1_1, Q02410
# T5 sequence (Q02410 651-752, limits assumed, looked up): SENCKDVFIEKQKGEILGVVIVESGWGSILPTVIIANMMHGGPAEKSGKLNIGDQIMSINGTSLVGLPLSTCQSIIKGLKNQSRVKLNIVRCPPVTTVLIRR
# T6: SNTG2, Q9NY99
# T6 sequence (Q9NY99 68-166, limits assumed, looked up): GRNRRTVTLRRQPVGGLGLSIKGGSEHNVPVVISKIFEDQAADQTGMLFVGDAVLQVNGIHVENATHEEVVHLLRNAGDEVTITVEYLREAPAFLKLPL
# T7: DLG3_3, Q92796
# T7 sequence (Q92796 374-475, limits assumed, looked up): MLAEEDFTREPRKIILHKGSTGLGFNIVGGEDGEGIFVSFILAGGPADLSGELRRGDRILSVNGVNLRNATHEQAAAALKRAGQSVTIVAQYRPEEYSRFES
# T8: DFNB31_2, Q9P202
# T8 sequence (Q9P202 274-371, limits assumed, looked up): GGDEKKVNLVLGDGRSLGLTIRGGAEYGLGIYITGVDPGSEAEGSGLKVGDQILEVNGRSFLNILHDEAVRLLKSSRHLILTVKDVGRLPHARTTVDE
# T9: PDZD2_2, O15018
# T9 sequence (O15018 329-429, limits assumed, looked up): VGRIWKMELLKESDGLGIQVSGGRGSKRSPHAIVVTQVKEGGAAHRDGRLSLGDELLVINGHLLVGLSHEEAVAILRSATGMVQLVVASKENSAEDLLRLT
# T10: RADIL, Q96JH8
# T10 sequence (Q96JH8 971-1071, limits assumed, looked up): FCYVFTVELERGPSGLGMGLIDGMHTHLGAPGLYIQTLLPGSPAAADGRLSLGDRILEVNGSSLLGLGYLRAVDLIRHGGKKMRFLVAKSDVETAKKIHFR
# T11: NHERF3_4, Q5T2W1
# T11 sequence (Q5T2W1 373-468, limits assumed, looked up): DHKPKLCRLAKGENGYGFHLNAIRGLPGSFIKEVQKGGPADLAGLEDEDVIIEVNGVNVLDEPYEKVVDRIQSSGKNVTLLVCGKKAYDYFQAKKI
# B1: PTEN_Ac, P60484 (peptide)
# chain: DEDQHTQITKV
# B2: GLA, P06280 (peptide)
# chain: TMQMSLKDLL
# B3: RPS6KA1_-3P, Q15418 (peptide)
# chain: RRVRKLPSTTL
# B4: GRIP1, Q9Y3R0 (peptide)
# chain: LETREPTNTL
# B5: ADGRE5, P48960 (peptide)
# chain: RALRASESGI
# Assays:
# Assay in all cases: holdup assay
# Parameters in all cases: key: below the threshold = too weak to quantify, mostly under pKd 3.1 to 4
# [1] = molecular target: Inadl_2, Q8NI35
# [2] = molecular target: T1, GRIP1_4, Q9Y3R0
# [3] = molecular target: SNX27, Q96L92
# [4] = molecular target: T2, APBA1_2, Q02410
# [5] = molecular target: DLG1_2, Q12959
# [6] = molecular target: FRMPD2_3, Q68DX3
# [7] = molecular target: T3, GRIP1_7, Q9Y3R0
# [8] = molecular target: LNX1_3, Q8TBB1
# [9] = molecular target: AHNAK1, Q09666
# [10] = molecular target: T4, MPP7, Q5T2T1
# [11] = molecular target: TJP1_2, Q07157
# [12] = molecular target: T5, APBA1_1, Q02410
# [13] = molecular target: DLG1_3, Q12959
# [14] = molecular target: T6, SNTG2, Q9NY99
# [15] = molecular target: T7, DLG3_3, Q92796
# [16] = molecular target: Inadl_6, Q8NI35
# [17] = molecular target: TJP1_3, Q07157
# [18] = molecular target: T8, DFNB31_2, Q9P202
# [19] = molecular target: MAGI3_2, Q5TCQ9
# [20] = molecular target: SCRIB_2, Q14160
# [21] = molecular target: T9, PDZD2_2, O15018
# [22] = molecular target: LNX1_2, Q8TBB1
# [23] = molecular target: T10, RADIL, Q96JH8
# [24] = molecular target: Inadl_5, Q8NI35
# [25] = molecular target: Inadl_3, Q8NI35
# [26] = molecular target: T11, NHERF3_4, Q5T2W1
# [27] = molecular target: HTRA2, O43464
# [28] = modified: acetyl on K at position -1 from the C-terminal residue
# [29] = plain residues with an end cap or a label only (N-terminal biotin on a linker: ado-ado)
# [30] = modified: phospho on S at position -3 from the C-terminal residue
# Chain of Inadl_5, Q8NI35 (Q8NI35 673-780): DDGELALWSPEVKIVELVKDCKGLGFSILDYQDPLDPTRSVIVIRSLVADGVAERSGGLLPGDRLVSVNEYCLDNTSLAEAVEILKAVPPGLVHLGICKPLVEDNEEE
# Chain of LNX1_2, Q8TBB1 (Q8TBB1 371-470): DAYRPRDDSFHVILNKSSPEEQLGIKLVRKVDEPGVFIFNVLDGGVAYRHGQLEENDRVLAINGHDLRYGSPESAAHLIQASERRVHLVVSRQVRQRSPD
# Chain of Inadl_2, Q8NI35 (Q8NI35 238-335): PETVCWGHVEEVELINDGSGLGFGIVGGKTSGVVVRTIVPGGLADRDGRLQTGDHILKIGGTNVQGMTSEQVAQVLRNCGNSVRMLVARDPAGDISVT
# Chain of AHNAK1, Q09666 (Q09666 4-100): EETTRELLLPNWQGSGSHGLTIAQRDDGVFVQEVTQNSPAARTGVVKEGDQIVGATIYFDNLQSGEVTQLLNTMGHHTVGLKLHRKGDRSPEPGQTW
# Chain of MAGI3_2, Q5TCQ9 (Q5TCQ9 398-503): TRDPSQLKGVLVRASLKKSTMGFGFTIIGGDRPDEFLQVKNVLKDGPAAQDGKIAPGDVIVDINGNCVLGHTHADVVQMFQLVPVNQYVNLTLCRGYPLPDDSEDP
# Chain of LNX1_3, Q8TBB1 (Q8TBB1 500-596): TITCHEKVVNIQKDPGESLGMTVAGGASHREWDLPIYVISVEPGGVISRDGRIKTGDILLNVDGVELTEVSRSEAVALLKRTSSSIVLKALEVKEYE
# Chain of FRMPD2_3, Q68DX3 (Q68DX3 1073-1166): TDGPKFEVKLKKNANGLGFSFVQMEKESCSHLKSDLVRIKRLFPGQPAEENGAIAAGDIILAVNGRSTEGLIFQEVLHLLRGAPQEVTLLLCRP
# Chain of SCRIB_2, Q14160 (Q14160 857-960): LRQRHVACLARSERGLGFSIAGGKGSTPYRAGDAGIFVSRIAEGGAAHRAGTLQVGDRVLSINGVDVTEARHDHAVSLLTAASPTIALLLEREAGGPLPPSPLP
# Chain of DLG1_2, Q12959 (Q12959 314-412): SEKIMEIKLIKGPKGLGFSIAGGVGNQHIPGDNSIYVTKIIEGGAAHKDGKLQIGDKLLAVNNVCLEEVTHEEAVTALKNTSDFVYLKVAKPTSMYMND
# Chain of TJP1_2, Q07157 (Q07157 181-274): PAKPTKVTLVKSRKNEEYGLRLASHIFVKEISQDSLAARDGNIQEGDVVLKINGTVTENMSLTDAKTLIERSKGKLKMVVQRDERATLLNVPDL
# Chain of DLG1_3, Q12959 (Q12959 457-571): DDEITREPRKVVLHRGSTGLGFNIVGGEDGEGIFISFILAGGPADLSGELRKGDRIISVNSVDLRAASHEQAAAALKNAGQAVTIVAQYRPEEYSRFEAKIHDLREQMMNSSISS
# Chain of TJP1_3, Q07157 (Q07157 416-512): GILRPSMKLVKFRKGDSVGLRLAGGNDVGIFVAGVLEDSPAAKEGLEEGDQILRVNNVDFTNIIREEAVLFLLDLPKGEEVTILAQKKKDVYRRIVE
# Chain of Inadl_6, Q8NI35 (Q8NI35 1058-1167): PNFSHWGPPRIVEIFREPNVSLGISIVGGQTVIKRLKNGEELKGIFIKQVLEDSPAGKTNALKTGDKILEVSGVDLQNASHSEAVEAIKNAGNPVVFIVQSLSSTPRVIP
# Chain of HTRA2, O43464 (O43464 355-458): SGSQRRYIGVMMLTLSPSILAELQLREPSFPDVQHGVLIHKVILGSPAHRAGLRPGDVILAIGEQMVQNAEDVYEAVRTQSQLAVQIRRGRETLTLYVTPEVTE
# Chain of Inadl_3, Q8NI35 (Q8NI35 359-469): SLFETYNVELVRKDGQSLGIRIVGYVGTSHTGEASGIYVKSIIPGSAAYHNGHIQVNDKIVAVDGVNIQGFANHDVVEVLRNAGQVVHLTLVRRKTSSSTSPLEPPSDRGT
binder,measurement,setting,value
B1,pKd,[1]; [28],3.6
same,pKd,[2]; [28],below the threshold
same,pKd,[3]; [28],5.32
same,pKd,[4]; [28],4.26
same,pKd,[5]; [28],4.67
same,pKd,[6]; [28],below the threshold
same,pKd,[7]; [28],below the threshold
same,pKd,[8]; [28],below the threshold
same,pKd,[9]; [28],below the threshold
same,pKd,[10]; [28],below the threshold
same,pKd,[11]; [28],below the threshold
same,pKd,[12]; [28],below the threshold
same,pKd,[13]; [28],below the threshold
same,pKd,[14]; [28],3.78
same,pKd,[15]; [28],below the threshold
same,pKd,[16]; [28],4.37
same,pKd,[17]; [28],below the threshold
same,pKd,[18]; [28],below the threshold
same,pKd,[19]; [28],4.55
same,pKd,[20]; [28],below the threshold
same,pKd,[21]; [28],4.22
same,pKd,[22]; [28],4.18
same,pKd,[23]; [28],4.71
same,pKd,[24]; [28],below the threshold
same,pKd,[25]; [28],below the threshold
same,pKd,[26]; [28],below the threshold
same,pKd,[27]; [28],below the threshold
B2,pKd,[1]; [29],below the threshold
same,pKd,[2]; [29],below the threshold
same,pKd,[3]; [29],below the threshold
same,pKd,[4]; [29],3.53
same,pKd,[5]; [29],below the threshold
same,pKd,[6]; [29],3.58
same,pKd,[7]; [29],below the threshold
same,pKd,[8]; [29],below the threshold
same,pKd,[9]; [29],below the threshold
same,pKd,[10]; [29],below the threshold
same,pKd,[11]; [29],below the threshold
same,pKd,[12]; [29],below the threshold
same,pKd,[13]; [29],below the threshold
same,pKd,[14]; [29],below the threshold
same,pKd,[15]; [29],3.65
same,pKd,[16]; [29],below the threshold
same,pKd,[17]; [29],3.61
same,pKd,[18]; [29],below the threshold
same,pKd,[19]; [29],below the threshold
same,pKd,[20]; [29],below the threshold
same,pKd,[21]; [29],below the threshold
same,pKd,[22]; [29],below the threshold
same,pKd,[23]; [29],below the threshold
same,pKd,[24]; [29],below the threshold
same,pKd,[25]; [29],below the threshold
same,pKd,[26]; [29],below the threshold
same,pKd,[27]; [29],below the threshold
B3,pKd,[1]; [30],below the threshold
same,pKd,[2]; [30],below the threshold
same,pKd,[3]; [30],4.1
same,pKd,[4]; [30],below the threshold
same,pKd,[5]; [30],3.61
same,pKd,[6]; [30],below the threshold
same,pKd,[7]; [30],3.68
same,pKd,[8]; [30],below the threshold
same,pKd,[9]; [30],below the threshold
same,pKd,[10]; [30],below the threshold
same,pKd,[11]; [30],below the threshold
same,pKd,[12]; [30],below the threshold
same,pKd,[13]; [30],below the threshold
same,pKd,[14]; [30],4.76
same,pKd,[15]; [30],below the threshold
same,pKd,[16]; [30],below the threshold
same,pKd,[17]; [30],below the threshold
same,pKd,[18]; [30],below the threshold
same,pKd,[19]; [30],4.1
same,pKd,[20]; [30],below the threshold
same,pKd,[21]; [30],below the threshold
same,pKd,[22]; [30],below the threshold
same,pKd,[23]; [30],below the threshold
same,pKd,[24]; [30],below the threshold
same,pKd,[25]; [30],below the threshold
same,pKd,[26]; [30],below the threshold
same,pKd,[27]; [30],3.75
B4,pKd,[1]; [29],below the threshold
same,pKd,[2]; [29],below the threshold
same,pKd,[3]; [29],below the threshold
same,pKd,[4]; [29],below the threshold
same,pKd,[5]; [29],below the threshold
same,pKd,[6]; [29],below the threshold
same,pKd,[7]; [29],below the threshold
same,pKd,[8]; [29],below the threshold
same,pKd,[9]; [29],below the threshold
same,pKd,[10]; [29],below the threshold
same,pKd,[11]; [29],below the threshold
same,pKd,[12]; [29],below the threshold
same,pKd,[13]; [29],below the threshold
same,pKd,[14]; [29],below the threshold
same,pKd,[15]; [29],below the threshold
same,pKd,[16]; [29],below the threshold
same,pKd,[17]; [29],below the threshold
same,pKd,[18]; [29],below the threshold
same,pKd,[19]; [29],below the threshold
same,pKd,[20]; [29],below the threshold
same,pKd,[21]; [29],below the threshold
same,pKd,[22]; [29],below the threshold
same,pKd,[23]; [29],below the threshold
same,pKd,[24]; [29],below the threshold
same,pKd,[25]; [29],below the threshold
same,pKd,[26]; [29],below the threshold
same,pKd,[27]; [29],below the threshold
B5,pKd,[1]; [29],below the threshold
same,pKd,[2]; [29],below the threshold
same,pKd,[3]; [29],below the threshold
same,pKd,[4]; [29],below the threshold
same,pKd,[5]; [29],below the threshold
same,pKd,[6]; [29],below the threshold
same,pKd,[7]; [29],below the threshold
same,pKd,[8]; [29],below the threshold
same,pKd,[9]; [29],below the threshold
same,pKd,[10]; [29],below the threshold
same,pKd,[11]; [29],below the threshold
same,pKd,[12]; [29],below the threshold
same,pKd,[13]; [29],below the threshold
same,pKd,[14]; [29],below the threshold
same,pKd,[15]; [29],below the threshold
same,pKd,[16]; [29],below the threshold
same,pKd,[17]; [29],below the threshold
same,pKd,[18]; [29],below the threshold
same,pKd,[19]; [29],below the threshold
same,pKd,[20]; [29],below the threshold
same,pKd,[21]; [29],below the threshold
same,pKd,[22]; [29],below the threshold
same,pKd,[23]; [29],below the threshold
same,pKd,[24]; [29],below the threshold
same,pKd,[25]; [29],below the threshold
same,pKd,[26]; [29],below the threshold
same,pKd,[27]; [29],below the threshold
